The source of these data is US20060160174A1 (published 2006).

The target of test [1] is T1, soluble p97 (amino acids 20-710 of human p97 precursor), 6x his tag (human, UniProt P08582 20-710).
T1 construct: range 20-710; also called p97 melanotransferrin; recombinant p97; not shown: 6x his tag from vector pSecTag2
T1 sequence: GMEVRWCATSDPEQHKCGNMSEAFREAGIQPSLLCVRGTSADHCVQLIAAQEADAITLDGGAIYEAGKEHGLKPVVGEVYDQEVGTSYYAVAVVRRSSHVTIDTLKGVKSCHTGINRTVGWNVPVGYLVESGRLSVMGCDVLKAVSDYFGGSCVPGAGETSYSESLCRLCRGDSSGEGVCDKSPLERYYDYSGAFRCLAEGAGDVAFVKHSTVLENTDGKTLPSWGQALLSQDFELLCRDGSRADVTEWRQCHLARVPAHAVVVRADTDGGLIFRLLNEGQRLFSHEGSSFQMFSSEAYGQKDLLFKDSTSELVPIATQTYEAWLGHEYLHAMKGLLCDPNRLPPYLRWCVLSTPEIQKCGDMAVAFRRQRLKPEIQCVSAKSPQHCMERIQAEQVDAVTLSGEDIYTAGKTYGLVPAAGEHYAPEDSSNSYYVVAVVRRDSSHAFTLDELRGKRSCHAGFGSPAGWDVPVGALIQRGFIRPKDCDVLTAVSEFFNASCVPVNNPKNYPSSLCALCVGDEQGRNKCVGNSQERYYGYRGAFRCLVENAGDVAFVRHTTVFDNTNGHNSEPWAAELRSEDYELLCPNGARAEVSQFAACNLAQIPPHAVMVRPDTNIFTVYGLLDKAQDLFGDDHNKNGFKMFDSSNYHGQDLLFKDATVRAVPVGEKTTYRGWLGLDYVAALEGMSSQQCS
Nature of the test: SPR, Biacore 2000, 25 C; p97 immobilised on CM5 chip, scFv fusion injected; 1:1 model. Background: SPR reads the build-up and loss of mass on a sensor chip optically.

The target in test [2] is T1, soluble p97 (amino acids 20-710 of …). Kind of test: SEC binding assay with purified p97 (discussion of the example).
Test [3] addresses T2, p97 antigen on human melanoma H3677 cells (human, UniProt P08582 20-709).
T2 sequence: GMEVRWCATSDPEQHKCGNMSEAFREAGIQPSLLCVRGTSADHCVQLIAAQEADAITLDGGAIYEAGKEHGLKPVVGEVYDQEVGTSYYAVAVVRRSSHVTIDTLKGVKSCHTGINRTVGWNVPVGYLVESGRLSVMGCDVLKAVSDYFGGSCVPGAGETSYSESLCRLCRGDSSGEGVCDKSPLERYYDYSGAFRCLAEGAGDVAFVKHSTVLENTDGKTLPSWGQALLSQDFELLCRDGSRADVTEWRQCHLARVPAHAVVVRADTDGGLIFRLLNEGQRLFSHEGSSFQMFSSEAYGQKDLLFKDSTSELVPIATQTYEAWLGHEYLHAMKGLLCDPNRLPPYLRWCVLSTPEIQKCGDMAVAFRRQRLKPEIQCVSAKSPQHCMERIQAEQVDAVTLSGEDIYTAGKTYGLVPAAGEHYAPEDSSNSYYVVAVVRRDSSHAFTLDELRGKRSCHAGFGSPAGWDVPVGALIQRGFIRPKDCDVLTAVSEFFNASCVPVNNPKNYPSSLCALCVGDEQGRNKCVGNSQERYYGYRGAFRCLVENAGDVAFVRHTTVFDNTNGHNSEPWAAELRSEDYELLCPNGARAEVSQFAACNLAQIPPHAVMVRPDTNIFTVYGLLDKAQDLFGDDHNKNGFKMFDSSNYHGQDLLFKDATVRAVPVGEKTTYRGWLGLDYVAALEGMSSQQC
Nature of the test: cell-based or functional assay.

B1: L49-sFv-bL double mutant FP965 (K H39 Q, N H91 Y) (scFv)
scFv: MEVQLQESGPSLVKPSQTLSLTCSVTGDSITSGYWNWIRQFPGNKLEYMGYISDSGITYYNPSLKSRISITRDTSKNQYYLQLNFVTAEDTATYYCARRTLATYYAMDYWGQGTSVTVSSGSTSGSGKPGSGEGSTKGDFVMTQTPLSLPVSLGDQASISCRASQSLVHSNGNTYLHWYLQKPGQSPKLLIYRVSNRFSGVPDRFSGSGSGTDFTLKISRVEAEDLGVYFCSQSTHVPPTFGGGTKLEIKRTPVSEKQLAEVVANTITPLMKAQSVPGMAVAVIYQGKPHYYTFGKADIAANKPVTPQTLFELGSISKTFTGVLGGDAIARGEISLDDAVTRYWPQLTGKQWQGIRMLDLATYTAGGLPLQVPDEVTDNASLLRFYQNWQPQWKPGTTRLYANASIGLFGALAVKPSGMPYEQAMTTRVLKPLKLDHTWINVPKAEEAHYAWGYRDGKAVRVSPGMLDAQAYGVKTNVQDMANWVMANMAPENVADASLKQGIALAQSRYWRIGSMYQGLGWEMLNWPVEANTVVETSFGNVALAPLPVAEVNPPAPPVKASWVHKTGSTGGFGSYVAFIPEKQIGIVMLANTSYPNPARVEAAYHILEALQ
One may read the Kd as the constant that tells how readily two partners part at equilibrium. Read a high Kd as weaker binding. One may read the koff as a measure of how fast the partners let go of each other. Low readings indicate slow dissociation, high ones fast dissociation. As usually defined, the kon is a measure of how fast the partners come together. The low end stands for slow association, the high end for fast association. B1: in test [1], the Kd is 1.91 nM, the koff turned out to be 0.000765 s⁻¹ and the kon is 400000 M⁻¹ s⁻¹. For the same molecule, the “percent of purified protein bound to antigen” value in test [2] was found to be 100%.

B2: L49-sFv-bL triple mutant FP990 (K H39 Q, F H82B S, N H91 Y) (scFv)
scFv: MEVQLQESGPSLVKPSQTLSLTCSVTGDSITSGYWNWIRQFPGNKLEYMGYISDSGITYYNPSLKSRISITRDTSKNQYYLQLNSVTAEDTATYYCARRTLATYYAMDYWGQGTSVTVSSGSTSGSGKPGSGEGSTKGDFVMTQTPLSLPVSLGDQASISCRASQSLVHSNGNTYLHWYLQKPGQSPKLLIYRVSNRFSGVPDRFSGSGSGTDFTLKISRVEAEDLGVYFCSQSTHVPPTFGGGTKLEIKRTPVSEKQLAEVVANTITPLMKAQSVPGMAVAVIYQGKPHYYTFGKADIAANKPVTPQTLFELGSISKTFTGVLGGDAIARGEISLDDAVTRYWPQLTGKQWQGIRMLDLATYTAGGLPLQVPDEVTDNASLLRFYQNWQPQWKPGTTRLYANASIGLFGALAVKPSGMPYEQAMTTRVLKPLKLDHTWINVPKAEEAHYAWGYRDGKAVRVSPGMLDAQAYGVKTNVQDMANWVMANMAPENVADASLKQGIALAQSRYWRIGSMYQGLGWEMLNWPVEANTVVETSFGNVALAPLPVAEVNPPAPPVKASWVHKTGSTGGFGSYVAFIPEKQIGIVMLANTSYPNPARVEAAYHILEALQ
As for B2, the “IC50 of prodrug C-Mel on H3677 melanoma cells pre-treated with 10 nM fusion protein, unbound material washed off; cell viability by alamarBlue” value in test [3] amounted to 5000 nM. In addition, in test [1], binding was characterised by a dissociation constant (Kd) of 1.75 nM, the koff turned out to be 0.000782 s⁻¹ and the kon came out at 448000 M⁻¹ s⁻¹. Moreover, the “percent of purified protein bound to antigen” value in test [2] came out at 100%.

B3: reverse orientation triple mutant FP999 (K H39 Q, F H82B S, N H91 Y, bL-L49-sFv orientation) (scFv)
chain: TPVSEKQLAEVVANTITPLMKAQSVPGMAVAVIYQGKPHYYTFGKADIAANKPVTPQTLFELGSISKTFTGVLGGDAIARGEISLDDAVTRYWPQLTGKQWQGIRMLDLATYTAGGLPLQVPDEVTDNASLLRFYQNWQPQWKPGTTRLYANASIGLFGALAVKPSGMPYEQAMTTRVLKPLKLDHTWINVPKAEEAHYAWGYRDGKAVRVSPGMLDAQAYGVKTNVQDMANWVMANMAPENVADASLKQGIALAQSRYWRIGSMYQGLGWEMLNWPVEANTVVETSFGNVALAPLPVAEVNPPAPPVKASWVHKTGSTGGFGSYVAFIPEKQIGIVMLANTSYPNPARVEAAYHILEALQMHGTKLMEVQLQESGPSLVKPSQTLSLTCSVTGDSITSGYWNWIRQFPGNKLEYMGYISDSGITYYNPSLKSRISITRDTSKNQYYLQLNSVTAEDTATYYCARRTLATYYAMDYWGQGTSVTVSSGSTSGSGKPGSGEGSTKGDFVMTQTPLSLPVSLGDQASISCRASQSLVHSNGNTYLHWYLQKPGQSPKLLIYRVSNRFSGVPDRFSGSGSGTDFTLKISRVEAEDLGVYFCSQSTHVPPTFGGGTKLEIKR
notes: also called bL-L49-scFv
Consider B3, for which the “IC50 of prodrug C-Mel on H3677 melanoma cells pre-treated with 10 nM fusion protein, unbound material washed off; cell viability by alamarBlue” value in test [3] worked out at 5000 nM. In test [1], this molecule had a dissociation constant Kd of 1.71 nM, an off-rate (koff) of 0.000575 s⁻¹ and a kon of 337000 M⁻¹ s⁻¹.
